From paper PMC8649396
Blank lines part the entries; values can stand above or below the substance they belong to.

What was measured:
[1] = biological target: His-tagged phthalate dioxygenase from Comamonas testosteroni KF1 (Ht-PDOKF1) (Comamonas testosteroni KF1); experiment: SEC
[2] = biological target: Phthalate dioxygenase from Comamonas testosteroni KF1 (PDOKF1), as crystallised (Comamonas testosteroni KF1); experiment: crystal structure
[3] = biological target: Rieske oxygenase from Cupriavidus metallidurans CH34 (RO_CH34) (Cupriavidus metallidurans CH34); experiment: SEC
[4] = biological target: Rieske oxygenase from Cupriavidus metallidurans CH34 (RO_CH34) (Cupriavidus metallidurans CH34); experiment: crystal structure

stoichiometry N [1]: 6
Substance: His-tagged phthalate dioxygenase from Comamonas testosteroni KF1 (Ht-PDOKF1) (enzyme)

stoichiometry N [2]: 6
Substance: Phthalate dioxygenase from Comamonas testosteroni KF1 (PDOKF1), as crystallised (enzyme)

stoichiometry N [3]: 3
stoichiometry N [4]: 3
Substance: Rieske oxygenase from Cupriavidus metallidurans CH34 (RO_CH34) (enzyme)
